This experiment has as its target T1, hTACI-Fc (soluble human TACI-Fc receptor fusion protein) (human, UniProt O14836 1-165).
T1 construct: also called shTACI-Fc; sTACI
T1 sequence: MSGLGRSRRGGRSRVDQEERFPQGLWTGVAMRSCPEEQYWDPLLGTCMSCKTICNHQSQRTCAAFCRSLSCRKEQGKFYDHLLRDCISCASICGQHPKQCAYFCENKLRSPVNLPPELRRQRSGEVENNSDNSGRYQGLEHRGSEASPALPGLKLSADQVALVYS
Description: BIAcore 2000; TACI-Fc immobilised on CM5, Flag-APRIL as analyte, 1:1 Langmuir model.

For orientation: Kd means the concentration at which binding is half-saturated. Read a low Kd as tighter binding.

B1: Soluble murine APRIL-Flag protein (FLAG-tagged soluble mouse G70) (ligand)
chain: KHKKKHSVLHLVPVNITSKADSDVTEVMWQPVLRRGRGLEAQGDIVRVWDTGIYLLYSQVLFHDVTFTMGQVVSREGQGRRETLFRCIRSMPSDPDRAYNSCYSAGVFHLHQGDIITVKIPRANAKLSLSPHGTFLGFV
Turning to B1, the Kd was determined as 1.48 nM.

The values above are taken from patent publication US20020086018A1 (published 2002).
